From patent US20210318322A1 (Janssen / Centocor, published 2021) come the findings set out here.

Where two headings read alike, the source gives them in different places.

In assay [1] the target is T1, human VISTA expressed on cells (human, UniProt Q9H7M9 33-295).
T1 sequence: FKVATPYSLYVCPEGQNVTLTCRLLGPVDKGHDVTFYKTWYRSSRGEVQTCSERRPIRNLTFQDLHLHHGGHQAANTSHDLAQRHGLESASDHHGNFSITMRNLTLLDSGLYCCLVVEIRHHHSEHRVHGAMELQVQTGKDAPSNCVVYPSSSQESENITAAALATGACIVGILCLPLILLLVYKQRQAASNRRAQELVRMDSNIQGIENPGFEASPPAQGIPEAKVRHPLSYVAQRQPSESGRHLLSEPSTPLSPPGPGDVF
As to the kind of experiment: cell-based or functional assay.

In assay [2] the target is T2, human VISTA extracellular domain (human, UniProt Q9H7M9 33-194).
T2 construct: also called human VISTA ECD; SB0361 (human)
As to the kind of experiment: SPR ProteOn.

Assay [3] addresses T3, cynomolgus VISTA extracellular domain (cynomolgus, UniProt A0A7N9IB00 33-194).
T3 construct: extracellular domain; also called cyno VISTA ECD; SB0361 (cyno (cynomolgus))
T3 sequence: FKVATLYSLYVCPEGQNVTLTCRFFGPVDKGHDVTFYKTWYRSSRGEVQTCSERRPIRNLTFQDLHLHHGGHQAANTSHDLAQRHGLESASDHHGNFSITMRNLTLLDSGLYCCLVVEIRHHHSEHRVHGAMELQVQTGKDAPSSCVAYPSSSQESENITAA
In words: SPR ProteOn.

The target in assay [4] is T1, human VISTA expressed on cells. In words: cell-based or functional assay. The source holds these as a separate data set.
The target is the same in assay [5]. As to the kind of experiment: cell-based or functional assay. The source holds these as a separate data set.
Assay [6] has as its target T3, cynomolgus VISTA extracellular domain. As to the kind of experiment: SPR ProteOn. This is another data set of the same source.

B1: VSTB95 (antibody, human IgG1, kappa, V domains shown)
VH: EVQLVESGGGLVQPGGSLRLSCAASGFTFRNYGMSWVRQAPGKGLEWVASIISGGSYTYYPDSVKGRFTISRDNAKNSLYLQMNSLRAEDTAVYYCARIYDHDGDYYAMDYWGQGTTVTVSS
VL: DIVMTQSPLSLPVTPGEPASISCRSSQSIVHSNGNTYLEWYLQKPGQSPQLLIYKVSNRFSGVPDRFSGSGSGTDFTLKISRVEAEDVGVYYCFQGSHVPWTFGQGTKLEIKR
notes: also called S16; INX Code 16
As to B1, in assay [1], the “EC50 IFN-gamma production, MLR” value worked out at 1.67 µg/mL and the “EC50 proliferation, MLR” value turned out to be 0.29 µg/mL. Besides, in assay [2], the affinity, expressed as Kd, was 126 pM; the koff amounted to 6.99e-05 s⁻¹; the kon amounted to 554000 M⁻¹ s⁻¹. In assay [3], this molecule showed a Kd of 192 pM, a koff of 8.53e-05 s⁻¹ and a kon of 443000 M⁻¹ s⁻¹. Besides, in assay [4], the “IC50, CPM in the MLR” value is -0.54 log10 of antibody concentration and the “IC50, IFN-gamma in the MLR” value is 0.22 log10 of antibody concentration. In assay [5], the “IC50, CPM in the SEB assay” value is -1.12 log10 of antibody concentration and the “IC50, IFN-gamma in the SEB assay” value was 0.05 log10 of antibody concentration.

B2: VSTB53 (antibody, human IgG1, kappa, V domains shown)
VH: QVQLVQSGAEVKKPGASVKVSCKASGYTFTHYTIHWVRQAPGQGLEWMGYIIPSSGYSEYNQKFKDRVTMTRDTSTSTVYMELSSLRSEDTAVYYCARGAYDDYYDYYAMDYWGQGTLVTVSS
VL: DIVMTQSPLSLPVTPGEPASISCRSSQTIVHSNGNTYLEWYLQKPGQSPQLLIYKVSNRFSGVPDRFSGSGSGTDFTLKISRVEAEDVGVYYCFQASHVPWTFGQGTKLEIKR
notes: also called S43; INX Code 43
On to B2, for which, in assay [1], the “EC50 IFN-gamma production, MLR” value came to 1.88 µg/mL and the “EC50 proliferation, MLR” value was determined as 0.47 µg/mL. In assay [2], this molecule registered an equilibrium dissociation constant (Kd) of 26.4 pM, a koff of 3.3e-05 s⁻¹ and a kon of 1.25e+06 M⁻¹ s⁻¹. In assay [3], the affinity, expressed as Kd, was 52.8 pM; the koff was 6.22e-05 s⁻¹; the kon is 1.18e+06 M⁻¹ s⁻¹. For the same molecule, in assay [4], the “IC50, CPM in the MLR” value was -0.33 log10 of antibody concentration and the “IC50, IFN-gamma in the MLR” value was 0.27 log10 of antibody concentration. Moreover, in assay [5], the “IC50, CPM in the SEB assay” value is -1.06 log10 of antibody concentration and the “IC50, IFN-gamma in the SEB assay” value is -1.05 log10 of antibody concentration.

B3: VSTB112 (antibody, human IgG1, kappa)
heavy: not shown
light: DIQMTQSPSSLSASVGDRVTITCRASQSIDTRLNWYQQKPGKAPKLLIYSASSLQSGVPSRFSGSGSGTDFTLTISSLQPEDFATYYCQQSAYNPITFGQGTKVEIKRTVAAPSVFIFPPSDEQLKSGTASVVCLLNNFYPREAKVQWKVDNALQSGNSQESVTEQDSKDSTYSLSSTLTLSKADYEKHKVYACEVTHQGLSSPVTKSFNRGEC
notes: also called S2; INX Code 2
In assay [3], B3 returned a Kd of 86.6 pM. That is a picomolar value.

B4: VSTB174 (antibody, human IgG1, kappa)
heavy: not shown
light: DIQMTQSPSSLSASVGDRVTITCRASQSIDTRLNWYQQKPGKAPKLLIYSASSLQSGVPSRFSGSGSGTDFTLTISSLQPEDFATYYCQQSAYNPITFGQGTKVEIKRTVAAPSVFIFPPSDEQLKSGTASVVCLLNNFYPREAKVQWKVDNALQSGNSQESVTEQDSKDSTYSLSSTLTLSKADYEKHKVYACEVTHQGLSSPVTKSFNRGEC
Turning to B4, the Kd in assay [6] was 86.6 pM.

B5: VSTB116 (antibody, human IgG1, kappa)
heavy: not shown
light: DIQMTQSPSSLSASVGDRVTITCRASQSINTNLNWYQQKPGKAPKLLIYAASSLQSGVPSRFSGSGSGTDFTLTISSLQPEDFATYYCQQARDTPITFGQGTKVEIKRTVAAPSVFIFPPSDEQLKSGTASVVCLLNNFYPREAKVQWKVDNALQSGNSQESVTEQDSKDSTYSLSSTLTLSKADYEKHKVYACEVTHQGLSSPVTKSFNRGEC
notes: also called S5; INX Code 5
On to B5, for which, in assay [1], the “EC50 IFN-gamma production, MLR” value is 0.69 µg/mL and the “EC50 proliferation, MLR” value was found to be 0.17 µg/mL. Besides, in assay [2], the affinity, expressed as Kd, was 213 pM; the koff turned out to be 0.000267 s⁻¹; the kon is 1.25e+06 M⁻¹ s⁻¹. Further, in assay [3], the Kd is 137 pM, the koff amounted to 0.000117 s⁻¹ and the kon was determined as 851000 M⁻¹ s⁻¹. Further, in assay [4], the “IC50, CPM in the MLR” value was -0.78 log10 of antibody concentration and the “IC50, IFN-gamma in the MLR” value was -0.16 log10 of antibody concentration. Also, in assay [5], the “IC50, CPM in the SEB assay” value is -1.44 log10 of antibody concentration and the “IC50, IFN-gamma in the SEB assay” value is -0.35 log10 of antibody concentration.

B6: VSTB50 (antibody, human IgG1, kappa, V domains shown)
VH: QVQLVQSGSELKKPGASVKVSCKASGYTFTNYGLNWVRQAPGQGLEWMGWINPYTGEPTYADDFKGRFVFSLDTSVSTAYLQICSLKAEDTAVYYCAREGYGNYIFPYWGQGTLVTVSS
VL: DIVMTQTPLSLSVTPGQPASISCRASESVDTYANSLMHWYLQKPGQPPQLLIYRASNLESGVPDRFSGSGSGTDFTLKISRVEAEDVGVYYCQQTNEDPRTFGQGTKLEIKR
notes: also called S41; INX Code 41
Consider B6, for which, in assay [1], the “EC50 IFN-gamma production, MLR” value was found to be 1.14 µg/mL and the “EC50 proliferation, MLR” value was found to be 0.77 µg/mL. Moreover, in assay [2], the Kd worked out at 632 pM, the koff was found to be 0.000305 s⁻¹ and the kon worked out at 482000 M⁻¹ s⁻¹. In assay [3], this molecule yielded a Kd of 310 pM, a koff of 0.000219 s⁻¹ and an association rate constant (kon) of 708000 M⁻¹ s⁻¹. In addition, in assay [4], the “IC50, CPM in the MLR” value is -0.12 log10 of antibody concentration and the “IC50, IFN-gamma in the MLR” value is 0.06 log10 of antibody concentration. For the same molecule, in assay [5], the “IC50, CPM in the SEB assay” value was -0.74 log10 of antibody concentration and the “IC50, IFN-gamma in the SEB assay” value is 1.69 log10 of antibody concentration.

B7: VSTB60 (antibody, human IgG1, kappa, V domains shown)
VH: QVQLVQSGSELKKPGASVKVSCKASGYTFTNYGMTWVRQAPGQGLEWMGWINTYTGESTYADDFKGRFVFSLDTSVSTAYLQICSLKAEDTAVYYCARDYYGIYVSAYWGQGTLVTVSS
VL: DIVMTQTPLSLSVTPGQPASISCRASESVDNYANSFMHWYLQKPGQSPQLLIYRASNLESGVPDRFSGSGSGTDFTLKISRVEAEDVGVYYCQQSHEDPYTFGQGTKLEIKR
notes: also called S47; INX Code 47
As for B7, in assay [1], the “EC50 IFN-gamma production, MLR” value turned out to be 2.48 µg/mL and the “EC50 proliferation, MLR” value was 1.04 µg/mL. In addition, in assay [2], the Kd was 356 pM, the koff is 0.000183 s⁻¹ and the kon came out at 514000 M⁻¹ s⁻¹. In assay [3], this molecule returned a Kd of 252 pM, a koff of 0.000143 s⁻¹ and a kon of 569000 M⁻¹ s⁻¹. Further, in assay [4], the “IC50, CPM in the MLR” value is 0.02 log10 of antibody concentration and the “IC50, IFN-gamma in the MLR” value was 0.4 log10 of antibody concentration.

One may read the Kd as the equilibrium constant for the complex coming apart. What is called koff is a measure of how fast the partners let go of each other. A high value points to a short-lived complex. The term kon denotes a measure of how fast the partners come together.
